In patent US20250298013A1:

Assays:
[1] = target: Background (Staphylococcus aureus); experiment: SPRi, in-line blocking: IgG mix injected after thiolated PEG over a chip functionalised with thiolated protein A, (-) press load [Continued) C]
[2] = target: Background (Staphylococcus aureus); experiment: SPRi, in-line blocking: IgG mix injected after thiolated PEG over a chip functionalised with thiolated protein A, (+) press load (300 Pa) [Continued) E]

With IgG mix (antibody) the IgG change (Background curve) (%Reflectivity) [1] was 12 and the IgG change (Background curve) (%Reflectivity) [2] was 2.
